From patent publication US20260241035A1, “FUNCTIONAL NUCLEIC ACID MOLECULE AND METHOD” (THE UNIVERSITY COURT OF THE UNIVERSITY OF EDINBURGH, priority 2022, published 2026)

Columns and labels:
GSC7 cells [1] = assay: Nano-Glo Dual-Luciferase Reporter (Nanoglo DLR) assay of enhancer activity, fold change to mCMV; format: cell-based, human; conditions: for Fold change (Median): expression fold change of the individual enhancer compared to mCMV
Summary of the method: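 160 bp enhancer fragments in NanoLuc reporter plasmids were co-transfected 1:10 with PGK-firefly luciferase into GSC7 cells using Lipofectamine LTX/Plus and read two days later. NanoLuc signal was normalised to firefly, then expressed as fold change to the empty mCMV vector.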

GSC7 cells [2] = assay: Flow cytometry of mNGreen reporter in GSC7; format: cell-based, human
Protocol: Cells were seeded at the required density. The following day the transfection was carried out. […] Following this step, the Plus reagent/Optimem premix was added to all DNA samples followed by the Lipofectamine LTX/Optimem premix. The transfection mix was incubated for 5 min at room temperature and then carefully dropped on the cells. Generally, no media change was carried out. Cells were analysed two days following transfection.
For flow cytometry, cells were detached, pelleted and resuspended in an appropriate volume of flow cytometry buffer (1% BSA in PBS, v/v). Cells were stained with Draq7 (Abcam, ab109202, f.c. 0.1 μM) as a live/dead stain and analysed using the BD LSRFortessa cell analyser (4 lasers, BD Bioscience).

B1: ID3548: enhancer fragment, SEQ ID NO: 15 (nucleic acid)
DNA: TCCAAACACTCCCCTGCAACAGATGTACACACAGAGCCCATTGTTTTCTCTAGAAATGTAAACTGCACGTCACAGTTACTCCATACACACCACAAACAGACTCCCTTTGTTCTCAGGATATGTGTTGACACAAGAATATGTCATCCTCTCAGCTCCAGAC
- Fold change (Median) (GSC7 cells [1]): 40.0 fold

B2: ID3836: enhancer fragment, SEQ ID NO: 20 (nucleic acid)
DNA: TACCCTTCCAGGGGAGCAGTTTCCTGGCTGTGTCGTCAGATACTGTGGTTTACGCTGTTCCGGAGTCTGGAGGTCTGTGTGCCTTTGATCTCTTTCCCAACTAATTTGCACAGCTGCTGTGGAGGCCCTCATGAATGACCTCTTTCTTTCCTTTCT
- Fold change (Median) (GSC7 cells [1]): 33.4 fold

B3: ID0456: enhancer fragment, SEQ ID NO: 26 (nucleic acid)
DNA: ATCACAAAGTGGTTAGCATGCAGGGGAGTGCGCCGGTCCCCCGCCTGTATTTGCATGACAAAAGCGCCTGCCCAACGGCTCTCGGTGGCTTTGTTGAGAGCTGCAGCCTCGCTCAGGCTGAGCCTTGGGAATTGTTCCCCGACATTGGTTGTTCCTGGGC
- Fold change (Median) (GSC7 cells [1]): 27.2 fold

B4: ID1888: enhancer fragment, SEQ ID NO: 23 (nucleic acid)
DNA: GACCTTGCCTCTTTCTGGCCTGTGGCCTTTCTCCTCCCCCAGCTGCTGTCTGGCCGCCCCACCCCCAAGTCTCTGCCACAACCAAAGCTCCTTTGTTGCCTCCCCCTGCCCCGGGCCTCTCCACCTGCTGCTAGCTCAATCCCCTCTTTGTGTGGTTGGT
- Fold change (Median) (GSC7 cells [1]): 31.1 fold

B5: ID1176: enhancer fragment, SEQ ID NO: 22 (nucleic acid)
DNA: ACAAACTAAACACAGACATTTTCTCAATTAGTCATTTTCAGGTTTATTGCCTAAGATGCTAATTGAAATTCAGGGCAGGCAAAAATACATCATTGGCCTTTGTATATCTTTGAAAGGCCTTCTGATGGGACCTTGCTCCGTATAAAGGCTTCTCTTCTCT
- Fold change (Median) (GSC7 cells [1]): 31.3 fold

B6: SSE-1: synthetic super-enhancer ID1101_ID2904_ID0109_ID4328, SEQ ID NO: 64 (nucleic acid)
DNA: GTGAGTGTGACTCACATGCTGGCATCAGAGCCCCTCTTAGAGCTTAGAACACTGGGCCTCTGTCAGGCAAAGAAAAGGAGTCCCTATGAATAGCCATCTCCACAAATAGCAGTTACTGTCACTTCTTAAAAGACACAAGCATGGCTGGAGACCGGCACTGTGCATGTTCTTGGGAAAAAGTGGTATTTAATGAAGGCGCTTTGAGCTGAATCAAAGAGCCTCATTCTTCTGAAAGTCCTTCTTCCTAGTCTCTGCATCCGGCTCCTATCAAAGGAAATCCACAGCTTTGGCTTTTCGTTGCTGTTGTCATGGAAATCGTTGAAATTGGATCCTGAGGAGAATGTCACCACCTCTTTGACAATAACTAGCTTTCAGAGCTGAACACAGTGAATCTGGATACTGTGTATATGTTTAAATGAGTTAGGAAATGACATCACATTATTTATTTCTTCTTTTGTGACTTAGTAAATTGACTTGGCCTACAATCTATTCTCCATAGTCATCAGAGTTTCTTTAAAGGCACGGTTCAGACAATGGCACCCTCTGTTCCAAACCCTCCAGGGCTTCCTATTTCACTTAGCATAAAAACCAAAGTCCTCACAATGACCGACAAGTCTTCACACAATGTGCCCCTTCATTG
- activity compared with CMV, Nanoglo DLR assay (GSC7 cells [1]; GSC7): higher than CMV
- expression level compared with positive control CMV, flow cytometry (GSC7 cells [2]): higher than CMV
- fluorescence intensity compared with CMV (GSC7 cells [2]): higher intensity than CMV

B7: ID3146: enhancer fragment, SEQ ID NO: 16 (nucleic acid)
DNA: TGAAAGAGATGGGTGTGTGGGAGTGGGGGAAGCTGAGCTCCAGGCAGACAGCACAGAGCCGCCTTGTCCAACCCAGCCAGGTGCCATGGCAACCAACAAAGGCCCCATTGTCCCGTGTCTGCTGGGCCTTCCTGAGGCTCTGGGGTCAGAGTCCCGGTT
- Fold change (Median) (GSC7 cells [1]): 37.2 fold

B8: ID3547: enhancer fragment, SEQ ID NO: 13 (nucleic acid)
DNA: CGTTCCCCCTTAACAAAAGCCACCTCCTCCCTCCTGAAAGGCACCATTGGTCACCAAAACAAGTCCCCTTTGTCCTCCACCGCAGCTGGAGCCTGGGCCTTCCATCTCCTGGGGGCCAATAAAACCCCAGATCAGCCAATCCTCCCTCCCTGGCTCTGTCA
- Fold change (Median) (GSC7 cells [1]): 53.2 fold

B9: ID2706: enhancer fragment, SEQ ID NO: 12 (nucleic acid)
DNA: CCAATGCCAAAGCAGTTTACATTTTACAGATGCCATGGCAACCGTCAGGAAGTTACCCTGTATGGTCTAAGAGGGGGAGGAACCCTCAGTTCCGGGAATTGCCCGCCCCTTTCCCGGAAACTCATGAATAATCCACCC
- Fold change (Median) (GSC7 cells [1]): 57.2 fold

B10: ID0663: enhancer fragment, SEQ ID NO: 11 (nucleic acid)
DNA: ATAAATTCCGATTAGCCAAGGAAGCTCTGAGTCTAAATACCAGCAAAGCTCAGCCCCTGCAAGTGGGGACGAATTATTTGAAAGGTCATCCTAGAGACACTGAACAAAGGGCCTCTAGCAGCT
modifications: listed as DNA, chemistry not given here
- Fold change (Median) (GSC7 cells [1]): 59.1 fold

B11: ID1244: enhancer fragment, SEQ ID NO: 25 (nucleic acid)
DNA: ACAGCAGCCAGAGGAAGTGGCTGTGTACAGAGAGCTTTTGTGAGAGAAGAGGGGGAGGGGGAAAGAGCAAAGAAAAAGAAGGAAAGAAGAGAGGGAAGAGGCCAGAGACAGAGAAGGCCAGAGCA
modifications: listed as DNA, chemistry not given here
- Fold change (Median) (GSC7 cells [1]): 27.8 fold

B12: ID4428: enhancer fragment, SEQ ID NO: 18 (nucleic acid)
DNA: TCTAAATGGAGATCCTCCCATAAAGGGAGTTCTGTTTGGGCTTCCCTTGGAAGTCCATTGAAAGCGTTTCACATTTCAATGCTTCTTTACATTCTCCTCTAGAATGAATCTGGAAGGGCCATTTCATTCCAGCCCTATCAGATTTACTACTTCCTCCTGT
- Fold change (Median) (GSC7 cells [1]): 36.2 fold

B13: ID0785: enhancer fragment, SEQ ID NO: 19 (nucleic acid)
DNA: AAGAATGAACTGGGCCCAGCTGGGCATTTGCATCAAAGTGCCTCACCAGAGTTCCCAGCTGCTCTGGCAGAGTGCCCAGGCTTGCCCCAGAGCCCAAACAGAATGCTCTTTGAGATGCCTCTGGTTTTCA
modifications: listed as DNA, chemistry not given here
- Fold change (Median) (GSC7 cells [1]): 34.3 fold

B14: ID4310: enhancer fragment, SEQ ID NO: 17 (nucleic acid)
DNA: TTGTCCTGCCTTTGAGAACACTGGAAGGGCACTGAAGGCTGACCAGCATGCACCTCACCCCACCTCCTCTCTGTCTCATCCTCAGCCATCTAAGCGGGAGACTCATCAGGCTTAAATTCTCATTCTTATCCAAGATTCTTCTGCTTCAAATGAG
- Fold change (Median) (GSC7 cells [1]): 36.3 fold

B15: ID3765: enhancer fragment, SEQ ID NO: 21 (nucleic acid)
DNA: B14 DNA
- Fold change (Median) (GSC7 cells [1]): 31.7 fold

B16: ID0291: enhancer fragment, SEQ ID NO: 24 (nucleic acid)
DNA: CATTCTTTGCAGATAGGAAACAGTTTGCTATCTGAGAGACTGGCCAAAAACCTTACTTTCAAGTAAAATAGGGCTCTATTCATAAGCTCCTACATGTACACAAGTTACTCTTTATACTCCTTTCAGACAATGATAAGAATAGAAACTATTTAATTCAGGA
- Fold change (Median) (GSC7 cells [1]): 29.0 fold

B17: ID1322: enhancer fragment, SEQ ID NO: 27 (nucleic acid)
DNA: GGGCAACAAAGGATGCCATGCAAAGCAGCTCAGAACTTGAGTTGTTTCAACAGATGCTGTTTTATGTTTTGCCAAAGAATGGCCCCTTTTATTTCTGTCATGAATGCAGTCTTTCTTTCAGTTTCTAAATGTTTGCCAGTATTAACCCTAATCCTTATCT
- Fold change (Median) (GSC7 cells [1]): 26.7 fold

B18: ID0885: enhancer fragment, SEQ ID NO: 14 (nucleic acid)
DNA: CAGCAAAGGCTGCACGCAATGGGGGAGGGGGAAGGAGGGAAGGATATTTCCTCCTTTTTAGATCAGTTTCTTTTCTGAGCACAAGTGCTTTCTGTGTCATCCTAACAATGTAAGAGCCCACTAAGTTTAGGACGCATAATACCGGCCTTTGTTCTACTCC
- Fold change (Median) (GSC7 cells [1]): 42.6 fold
